Source: PMC8409056

Key:
[1] = target: SARS-CoV-2 spike S1 subunit (SARS-CoV-2, UniProt P0DTC2 16-685)
[2] = target: SARS-CoV-2 spike RBD-Fc fusion (SARS-CoV-2, UniProt P0DTC2 319-541); assay: ELISA on aptamer-coated gold slide

B1: CoV-2-RBD-4C aptamer (Aptamer-4C) (structured_DNA)
DNA: ATCCAGAGTGACGCAGCATTTCATCGGGTCCAAAAGGGGCTGCTCGGGATTGCGGATATGGACACGT
modifications: 5'-thiol, immobilized on gold
Q: What does the source list for B1?
A: binding result [1]: binds; binding result [2]: binds
